This is an account of results in patent publication US20230056252A1 (Gilead, published 2023).

In test [1] the target is T1, CD3 expressed on cell-surface of primary human T cells (human, UniProt P07766 23-207; P04234 22-171).
T1 construct: also called cell-surface CD3; human CD3
Briefly: flow cytometry on PBMCs, % anti-huIgG+ CD4+ cells, donor hu 151.

Test [2] has as its target T1, CD3 expressed on cell-surface of …. The test is described as follows: flow cytometry on human PBMCs, CD4+ cells, donor 3761.
Method: (§1) Briefly, peripheral blood mononuclear cells (PBMCs) were incubated with different concentrations of HIV×CD3 bispecific molecules for 1 hour at RT. […] Cells were then washed, fixed/permeabilized, and analyzed using BD LSRFortessa according to the manufacturer's protocol. The percentage of α-huIgG-APC-positive CD4+ and CD8+ T cells and the mean fluorescence intensity of the α-huIgG-APC of CD4+ and CD8+ cells were collected, and data analyzed using GraphPad Prism.
(§2) Binding experiments were performed using PBMCs from two healthy human donors.
In test [3] the target is CD3 on rhesus monkey T cells in PBMCs (rhesus monkey). Briefly: flow cytometry on PBMCs, % anti-huIgG+ CD4+ cells, donor rh 3563. For orientation: Flow cytometry measures light scatter and fluorescence of single cells or particles in a stream.
In test [4] the target is T1, CD3 expressed on cell-surface of …. The test is described as follows: flow cytometry on PBMCs, % anti-huIgG+ CD8+ cells, donor hu 340.
Method: (§3) Briefly, PBMCs from healthy human donors and healthy rhesus or cynomolgus monkey donors were incubated with different concentrations of HIV×CD3 bispecific molecules for 1 hour at RT. […] Cells were then washed, fixed/permeabilized, and analyzed on BD LSRFortessa. The percentage of α-huIgG-APC-positive CD4+ and CD8+ T cells and the mFI of the α-huIgG-APC of CD4+ and CD8+ cells were collected, and data analyzed using GraphPad Prism.
For test [5], the target named is CD3 on rhesus monkey T cells in PBMCs (rhesus monkey). The test is described as follows: flow cytometry on PBMCs, % anti-huIgG+ CD4+ cells, donor rh 3483.
The target of test [6] is T1, CD3 expressed on cell-surface of …. Briefly: flow cytometry on human PBMCs, CD8+ cells, donor 3761.
Method: as §1, §2
For test [7] the target is unchanged. The test is described as follows: flow cytometry on human PBMCs, CD8+ cells, donor 4574.
Method: as §1, §2
Test [8] shares this target. The test is described as follows: flow cytometry on PBMCs, % anti-huIgG+ CD4+ cells, donor hu 340.
Method: as §3
For test [9] the target is unchanged. Briefly: cell-based or functional assay.
The target is the same in test [10]. The test is described as follows: flow cytometry on PBMCs, % anti-huIgG+ CD8+ cells, donor hu 151.
Method: as §3
For test [11] the target is unchanged. The test is described as follows: flow cytometry on human PBMCs, CD4+ cells, donor 4574.
Method: as §1, §2
The target in test [12] is CD3 on rhesus monkey T cells in PBMCs (rhesus monkey). The test is described as follows: flow cytometry on PBMCs, % anti-huIgG+ CD8+ cells, donor rh 3563.
The target is the same in test [13]. Briefly: flow cytometry on PBMCs, % anti-huIgG+ CD8+ cells, donor rh 3483.
The target in test [14] is T1, CD3 expressed on cell-surface of …. Briefly: flow cytometry competition vs murine SP34-AF488 on human T cells, n = 2.
Method: (§4) Binding of humanized SP34 Fab variants to CD3 expressed on cell-surface of primary human T cells was evaluated in a flow cytometry-based competition assay.
Test [15] addresses T2, biotinylated CD3 epsilon: delta heterodimer protein (Amsbio AMS.CDD-H52WO) (Homo sapiens (Human), UniProt P07766 23-126; P04234 22-105). Briefly: BLI (Octet), huSP34 variant in Fab format.
Method: (§5) The CD3 binding kinetics of the purified huSP34 Fabs were determined using OctetRed384 (Pall ForteBio, CA) biolayer interferometry (BLI). […] Streptavidin (SA) coated biosensors tips (Pall ForteBio, CA) were used to capture biotinylated CD3 epsilon: delta heterodimer and typical immobilization levels captured on the SA sensors were 1 nm which approximately translates to 300 ng/ml of captured protein. For kinetic measurements biosensors were first pre-wetted with assay buffer for 10 minutes to remove protective sucrose coating followed by the recommended regeneration conditions for standardization of the biosensor surface for the experiment. In order to load the biosensors with antigen, 300 ng/ml of biotinylated CD3 epsilon: delta heterodimer protein (Amsbio AMS.CDD-H52WO) was immobilized on the SA sensor for 900 seconds. The CD3 loaded biosensors were then blocked with 20 ug/ml biocytin (sigma) for 200 seconds and then dipped into assay buffer containing wells for 200 seconds to remove any non-specific protein or unbound CD3 heterodimer.
(§6) CD3 loaded and biocytin blocked biosensors were then transferred into fresh assay buffer for 200 seconds to collect a baseline read. Kinetic measurements for anti-CD3 Fab and bispecific antibody binding were performed by dipping the CD3-coated biosensors into wells containing multiple concentrations of Fab or Ab (0-300 nM) for 100 seconds followed by a 300 second dissociation time by transferring the biosensors into assay buffer containing wells. The CD3 loaded sensors were then regenerated for the next kinetic measurement. Biosensors were generated by removing bound Fabs or Ab from immobilized CD3 on SA biosensors. Regeneration conditions used consisted of 3 cycles of 5 seconds of dipping the biosensors in Regeneration Buffer (10 mM Glycine HCl pH 1.5) followed by Assay Buffer (10 mM sodium phosphate pH 7.4, 140 mM Sodium Chloride, 0.005% Tween20 with 0.2% BSA).
Test [16] has as its target T1, CD3 expressed on cell-surface of …. The test is described as follows: flow cytometry competition vs murine SP34-AF488 on human T cells, average.
Method: as §4
For test [17] the target is unchanged. The test is described as follows: flow cytometry competition vs murine SP34-AF488 on human T cells, n = 1.
Method: as §4
In test [18] the target is T2, biotinylated CD3 epsilon: delta …. The test is described as follows: BLI (Octet), corresponding huSP34 Fab variant.
Method: as §5, §6
Test [19] deals with T1, CD3 expressed on cell-surface of …. Briefly: flow cytometry competition vs murine SP34-AF488 on human T cells, n = 1. This is another data set of the same source.
Method: as §4
(§7) A second round of huSP34 Fab variants were characterized using the same flow cytometry-based competition assay as described above.
Test [20] has the same target. The test is described as follows: flow cytometry competition vs murine SP34-AF488 on human T cells, average. The source holds these as a separate data set.
Method: as §4, §7
Test [21] has the same target. Briefly: flow cytometry competition vs murine SP34-AF488 on human T cells, n = 2. This is another data set of the same source.
Method: as §4, §7

Chain of CD3 on rhesus monkey T cells in PBMCs (rhesus monkey) (P16003 26-458): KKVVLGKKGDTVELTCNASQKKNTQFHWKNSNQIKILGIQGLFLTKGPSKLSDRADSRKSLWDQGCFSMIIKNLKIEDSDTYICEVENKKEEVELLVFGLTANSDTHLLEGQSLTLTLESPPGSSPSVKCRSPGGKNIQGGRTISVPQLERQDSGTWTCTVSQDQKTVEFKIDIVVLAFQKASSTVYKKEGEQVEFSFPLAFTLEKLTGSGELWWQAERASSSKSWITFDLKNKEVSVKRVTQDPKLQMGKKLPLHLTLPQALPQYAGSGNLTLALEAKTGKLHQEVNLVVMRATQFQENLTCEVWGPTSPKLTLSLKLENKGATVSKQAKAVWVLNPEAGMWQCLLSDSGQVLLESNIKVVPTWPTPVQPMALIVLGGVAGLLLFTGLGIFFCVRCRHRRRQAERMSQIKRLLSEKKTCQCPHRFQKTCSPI

B1: hPGT121.66 AAS + W/huSP34.1.3 scFv AAS + SAV + RF (bispecific antibody, human IgG1, lambda, L234A L235A)
chain: not shown
heavy: QMQLQESGPGLVKPSETLSLTCSVSGASISDSYWSWIRRSPGKGLEWIGYVHKSGDTNYNPSLKSRVHLSLDTSKNQVSLSLTGVTAADSGKYYCARTLHGRRIYGIVAFNEWFTYFYMDVWGTGTQVTVSSASTKGPSVFPLAPSSKSTSGGTAALGCLVKDYFPEPVTVSWNSGALTSGVHTFPAVLQSSGLYSLSSVVTVPSSSLGTQTYICNVNHKPSNTKVDKKVEPKSCDKTHTCPPCPAPEAAGGPSVFLFPPKPKDTLMISRTPEVTCVVVDVSHEDPEVKFNWYVDGVEVHNAKTKPREEQYNSTYRVVSVLTVLHQDWLNGKEYKCKVSNKALPASIEKTISKAKGQPREPQVYTLPPSREEMTKNQVSLWCLVKGFYPSDIAVEWESNGQPENNYKTTPPVLDSDGSFFLYSKLTVDKSRWQQGNVFSCSVMHEALHNHYTQKSLSLSPGK
light: not shown
A word on the EC50: it is the concentration that produces a half-maximal response. Take B1: the EC50 was found to be 0.41 µg/mL in test [1]; 0.32 µg/mL in [2]; 0.4 µg/mL in test [3]; 0.68 µg/mL in [4]; 0.33 µg/mL in test [5]; 0.36 µg/mL in test [6]. Also, the EC50 in test [7] came to 0.35 µg/mL; in test [8] it was 0.42 µg/mL; in test [10], 0.44 µg/mL; in test [11], 0.33 µg/mL; in test [12] it was 1.02 µg/mL; in [13] it was 0.55 µg/mL. Further, the “killing EC50, primary HIV-infected CD4+ cells, PBMC effector cells, isolate 657” value (from here on “killing EC50 … isolate 657”) in test [9] came to 1.61 µg/mL. Also, the “killing EC50, primary HIV-infected CD4+ cells, PBMC effector cells, isolate 7552” value (“killing EC50 … isolate 7552” for short) in test [9] came out at 0.107 µg/mL.

B2: hPGT121.66 AAS + W/huSP34.13.10 scFv AAS + SAV + RF (bispecific antibody, human IgG1, lambda, L234A L235A)
chain: EVQLVESGGGLVQPGGSLRLSCAASGFTFSTYAMNWVRQAPGKGLEWVGRIRSKYNNYATYYAASVKGRFTISRDDSKNTLYLQMNSLRTEDTAVYYCVRHGNFGHSYVSWFAYWGQGTLVTVSSGGGGSGGGGSGGGGSGGGGSQAVVTQPPSLTVSPGGTVTLTCGSSTGAVTTGHYANWVQQKPGQAPRGLIGGTNKRAPGVPARFSGSLSGGKAALTISGAQPEDEAEYYCALWYSNRWVFGGGTKLTVLEPKSSDKTHTCPPCPAPEAAGGPSVFLFPPKPKDTLMISRTPEVTCVVVDVSHEDPEVKFNWYVDGVEVHNAKTKPREEQYNSTYRVVSVLTVLHQDWLNGKEYKCKVSNKALPASIEKTISKAKGQPREPQVYTLPPSREEMTKNQVSLSCAVKGFYPSDIAVEWESNGQPENNYKTTPPVLDSDGSFFLVSKLTVDKSRWQQGNVFSCSVMHEALHNRFTQKSLSLSPGK
heavy: QMQLQESGPGLVKPSETLSLTCSVSGASISDSYWSWIRRSPGKGLEWIGYVHKSGDTNYNPSLKSRVHLSLDTSKNQVSLSLTGVTAADSGKYYCARTLHGRRIYGIVAFNEWFTYFYMDVWGTGTQVTVSSASTKGPSVFPLAPSSKSTSGGTAALGCLVKDYFPEPVTVSWNSGALTSGVHTFPAVLQSSGLYSLSSVVTVPSSSLGTQTYICNVNHKPSNTKVDKKVEPKSCDKTHTCPPCPAPEAAGGPSVFLFPPKPKDTLMISRTPEVTCVVVDVSHEDPEVKFNWYVDGVEVHNAKTKPREEQYNSTYRVVSVLTVLHQDWLNGKEYKCKVSNKALPASIEKTISKAKGQPREPQVYTLPPSREEMTKNQVSLWCLVKGFYPSDIAVEWESNGQPENNYKTTPPVLDSDGSFFLYSKLTVDKSRWQQGNVFSCSVMHEALHNHYTQKSLSLSPGK
light: not shown
For the molecule B2, the EC50 in [2] was found to be 0.045 µg/mL; in test [6], 0.095 µg/mL; in [7] it was 0.062 µg/mL; in [11], 0.037 µg/mL. Also, in test [9], the “killing EC50 … isolate 657” value is 0.275 µg/mL. Further, the “killing EC50 … isolate 7552” value in test [9] was 0.011 µg/mL.

B3: hPGT121.66 AAS + W/huSP34.3.6scFv AAS + SAV + RF (bispecific antibody, human IgG1, lambda, L234A L235A)
chain: EVQLVESGGGLVQPGGSLRLSCAASGFTFNTYAMNWVRQAPGKGLEWVGRIRSKYNNYATYYADSVKGRFTISRDDSKNSLYLQMNSLRTEDTAVYYCVRHGNFGHSYVSWFAYWGQGTLVTVSSGGGGSGGGGSGGGGSGGGGSQAVVTQPPSLTVSPGGTVTLTCGSSTGAVTTGHYANWVQQKPGQAPRGLIGGTSNRAPGVPARFSGSLSGGKAALTISGAQPEDEAEYYCALWYSARWVFGGGTKLTVLEPKSSDKTHTCPPCPAPEAAGGPSVFLFPPKPKDTLMISRTPEVTCVVVDVSHEDPEVKFNWYVDGVEVHNAKTKPREEQYNSTYRVVSVLTVLHQDWLNGKEYKCKVSNKALPASIEKTISKAKGQPREPQVYTLPPSREEMTKNQVSLSCAVKGFYPSDIAVEWESNGQPENNYKTTPPVLDSDGSFFLVSKLTVDKSRWQQGNVFSCSVMHEALHNRFTQKSLSLSPGK
heavy: QMQLQESGPGLVKPSETLSLTCSVSGASISDSYWSWIRRSPGKGLEWIGYVHKSGDTNYNPSLKSRVHLSLDTSKNQVSLSLTGVTAADSGKYYCARTLHGRRIYGIVAFNEWFTYFYMDVWGTGTQVTVSSASTKGPSVFPLAPSSKSTSGGTAALGCLVKDYFPEPVTVSWNSGALTSGVHTFPAVLQSSGLYSLSSVVTVPSSSLGTQTYICNVNHKPSNTKVDKKVEPKSCDKTHTCPPCPAPEAAGGPSVFLFPPKPKDTLMISRTPEVTCVVVDVSHEDPEVKFNWYVDGVEVHNAKTKPREEQYNSTYRVVSVLTVLHQDWLNGKEYKCKVSNKALPASIEKTISKAKGQPREPQVYTLPPSREEMTKNQVSLWCLVKGFYPSDIAVEWESNGQPENNYKTTPPVLDSDGSFFLYSKLTVDKSRWQQGNVFSCSVMHEALHNHYTQKSLSLSPGK
light: not shown
notes: also called 259
On to B3, for which the EC50 in [2] is 0.65 µg/mL; in test [6], 0.48 µg/mL; in test [7], 1.1 µg/mL; in test [11], 1.4 µg/mL. Besides, the “killing EC50 … isolate 657” value in test [9] worked out at 2.37 µg/mL. For the same molecule, in [9], the “killing EC50 … isolate 7552” value was determined as 0.123 µg/mL.

B4: huSP34.3.4 Fab-HF (Fab, V domains shown)
VH: EVQLVESGGGLVQPGGSLRLSCAASGFTFNTYAMNWVRQAPGKGLEWVGRIRSKYNNYATYYADSVKGRFTISRDDSKNSLYLQMNSLRTEDTAVYYCVRHGNFGHSYVSWFAYWGQGTLVTVSS
VL: QAVVTQEPSLTVSPGGTVTLTCGSSTGAVTTSHYANWVQQKPGQAPRGLIGGTSKRAPWTPARFSGSLLGGKAALTLSGAQPEDEAEYYCALWYSALWVFGGGTKLTVL
By IC50 is commonly meant the point on the concentration scale where inhibition reaches its midpoint. Usually Kd stands for the free concentration of one partner at which half of the binding sites on the other are occupied at equilibrium, for simple one-to-one binding. With B4, the IC50 is 17.3 µg/mL in [14], 17.3 µg/mL in [16] and above 20 µg/mL in test [17]. The Kd in test [15] and in test [18] was 86 nM throughout.

B5: huSP34.13.10 Fab-HF (Fab, V domains shown)
VH: EVQLVESGGGLVQPGGSLRLSCAASGFTFSTYAMNWVRQAPGKGLEWVGRIRSKYNNYATYYAASVKGRFTISRDDSKNTLYLQMNSLRTEDTAVYYCVRHGNFGHSYVSWFAYWGQGTLVTVSS
VL: QAVVTQPPSLTVSPGGTVTLTCGSSTGAVTTGHYANWVQQKPGQAPRGLIGGTNKRAPGVPARFSGSLSGGKAALTISGAQPEDEAEYYCALWYSNRWVFGGGTKLTVL
Turning to B5, the IC50 in test [19] came out at 0.35 µg/mL; in test [20] it was 0.25 µg/mL; in test [21], 0.16 µg/mL. For the same molecule, the Kd in test [15] and in [18] was 1.8 nM in each case.
